From the Human Domainome abundance scans (Beltran et al. 2025)

B1: Double-stranded RNA-specific adenosine deaminase, residues 296 to 358; numbered along this chain, P55265 (parent)
chain: MAEIKEKICDYLFNVSDSSALNLAKNIGLTKARDINAVLIDMERQGDVYRQGTTPPIWHLTDK

Variants of: B1
Experiment: abundance fitness (aPCA) (normalised: wild type 0, dead -1); higher = more abundant; growth selection in yeast, the domain comes from the species named
Conditions: Homo sapiens

Abundance fitness: each site, then its substitutions
G46: R -0.902; N -0.827; P -0.778; F -1.05; Y -1.06; S -0.618; E -0.66; Q -0.652; L -0.974; V -0.613; C -0.998; I -1.03; T -0.856; A -0.844; W -1.15; K -0.448; M -0.498
D47: F -0.177; G -0.881; N -0.322; A -0.117; E 0.35; L 0.297; K 0.024; M 0.182; Q 0.122; C -0.096; H -0.123; R 0.046
L29: T -0.167; E 0.045; Q -0.026; G 0.006; P -0.336; N 0.041; W -0.633; V -0.1; S -0.17; F -0.107; H -0.325; M 0.154; R -0.356; D 0.035; K -0.54; I -0.025; A -0.103; C -0.125; Y -0.136
N36: W -0.154; V -0.428; F -0.455; E 0.406; K -0.098; R -0.38; Y -0.232; T -0.011; G -0.366; Q -0.156; H 0.081; A -0.497; I -0.438; D 0.131; L -0.282; P -0.49; S -0.202; M -0.184; C -0.397
Q45: Y -0.637; V -0.075; R -0.33; N 0.033; C -0.053; H -0.024; F -0.729; D 0.17; T -0.097; A 0.145; L -0.524; I -0.495; G -0.778; E 0.022; K -0.492; P -0.912; S 0.022
D41: N -0.514; Y -1.06; A -0.315; C -0.822; G -0.348; R -0.73; W -1.12; L -0.99; H -0.754; P -0.421; T -0.445; M -0.539; V -1.14; S -0.501; F -1.34; E 0.223
D34: F -0.75; K -0.518; S -0.397; Y -0.694; W -0.984; H -0.578; P -0.541; I -0.422; Q -0.283; T -0.724; G -0.592; M -0.333; L -0.444; A -0.243; C -0.978; R -0.699
A37: N -0.247; C -0.417; E -0.024; S -0.025; M -0.386; L -0.392; Q -0.11; G -0.332; R -0.054; T -0.173; W -0.453; D -0.101; Y -0.457; P -0.145; H 0.039
E43: F -0.748; M -0.848; H -0.798; T -1.07; L -0.93; G -0.508; A -0.66; I -1.13; Y -0.725; R -0.927; D -0.665; V -0.873; N -0.697; Q -0.447; P -0.729; S -0.841
K31: Q 0.097; R -0.006; S 0.285; C 0.237; L -0.53; A -0.098; G -0.049; I -1.14; H 0.367; N 0.144; F -0.695; V -0.67; Y 0.173; P 0.041; T 0.066; E 0.251; W -0.635; D 0.36
R44: I -0.26; A 0.079; G -0.334; M -0.27; N -0.056; L -0.373; Y -0.614; E -0.126; D -0.175; T -0.043; K 0.067; H -0.274; Q 0.037; W -0.705; C -0.6; S -0.173
L39: T -0.461; D -0.125; G -0.176; N -0.393; F -0.812; S -0.265; R -0.365; W -0.966; M -0.294; A -0.148; I -0.756; Q -0.244; C -0.528; Y -0.678; K -0.096; P -0.385; V -0.589; H -0.44
M42: F -0.965; L -0.369; W -0.795; P -0.502; A -0.479; C -0.742; K -0.303; T -0.636; Q -0.335; I -1.03; V -0.774; S -0.613; G -0.485; D -0.551; E -0.22; N -0.412; R -0.629
I35: T -0.217; H -0.556; Q -0.348; W -1.1; V -0.034; A -0.326; L -0.279; K -0.323; M -0.523; S -0.343; G -0.627; Y -0.743; F -0.681; C -0.348; P -0.257; D -0.225
V38: E -0.13; G -0.128; F -0.952; I 0.035; M -0.488; W -0.739; T -0.11; C 0.12; A 0.343; Y -1.27; Q -0.276; P -0.24; L -0.253; K -0.387; R -0.528; H -0.31; N -0.195; D -0.254; S -0.316
G28: N -0.43; Y -0.982; T -0.655; S -0.474; R -0.802; Q -0.606; P -0.234; M -0.805; K -0.229; F -0.796; V -0.713; I -1.01; L -0.97; H -0.508; W -0.886
I40: G -0.265; A 0.083; R -0.054; F -0.165; C -0.153; S 0.117; P -0.387; W -0.388; Y 0.043; H -0.218; Q 0.159; D -0.093; M 0.122; L 0.128; N 0.075; K -0.025; V -0.049; T -0.065
A32: T -0.018; I 0.076; H -0.204; N -0.232; Y -0.088; V 0.108; M 0.088; G -0.091; P -0.162; Q -0.034; R -0.485; S -0.103; E 0.159; C -0.121; K -0.37; F -0.091; L 0.25
T30: E 0.361; H -0.252; I -0.299; M -0.204; A 0.128; Y 0.141; Q -0.021; F -0.246; D 0.413; G -0.054; C -0.002; L -0.312; N 0.127; P -0.199; S 0.107; R -0.352; V -0.201
R33: C 0.157; L -0.028; P -0.272; F 0.19; E 0.564; V 0.327; N 0.195; A 0.365; Y 0.185; S 0.342; K 0.056; I 0.262; G 0.207; T 0.263; D 0.417; H 0.094
